Test results taken from patent publication US20230340160A1 (published 2023).

B1: CD3/MCSP “1+1 IgG Crossfab”; VL/VH exchange (LC007/V9) (bispecific antibody)
heavy: DIQMTQSPSSLSASVGDRVTITCRASQDIRNYLNWYQQKPGKAPKLLIYYTSRLESGVPSRFSGSGSGTDYTLTISSLQPEDFATYYCQQGNTLPWTFGQGTKVEIKSSASTKGPSVFPLAPSSKSTSGGTAALGCLVKDYFPEPVTVSWNSGALTSGVHTFPAVLQSSGLYSLSSVVTVPSSSLGTQTYICNVNHKPSNTKVDKKVEPKSCGGGGSGGGGSEVQLQESGPGLVKPSQSLSLTCSVTGYSITSGYYWNWIRQFPGNKLEWMGYITYDGSNNYNPSLKNRISITRDTSKNQFFLKLNSVTTEDTATYYCADFDYWGQGTTLTVSSASTKGPSVFPLAPSSKSTSGGTAALGCLVKDYFPEPVTVSWNSGALTSGVHTFPAVLQSSGLYSLSSVVTVPSSSLGTQTYICNVNHKPSNTKVDKKVEPKSCDKTHTCPPCPAPEAAGGPSVFLFPPKPKDTLMISRTPEVTCVVVDVSHEDPEVKFNWYVDGVEVHNAKTKPREEQYNSTYRVVSVLTVLHQDWLNGKEYKCKVSNKALGAPIEKTISKAKGQPREPQVCTLPPSRDELTKNQVSLSCAVKGFYPSDIAVEWESNGQPENNYKTTPPVLDSDGSFFLVSKLTVDKSRWQQGNVFSCSVMHEALHNHYTQKSLSLSPGK
chain: not shown
light 1: DIVLTQSPSSLSASLGDRVTISCSASQGIRNYLNWYQQRPDGTVKLLIYYTSSLHSGVPSRFSGSGSGTDYSLTISNLEPEDIATYYCQQYSKLPWTFGGGTKLEIKRTVAAPSVFIFPPSDEQLKSGTASVVCLLNNFYPREAKVQWKVDNALQSGNSQESVTEQDSKDSTYSLSSTLTLSKADYEKHKVYACEVTHQGLSSPVTKSFNRGEC
light 2: EVQLVESGGGLVQPGGSLRLSCAASGYSFTGYTMNWVRQAPGKGLEWVALINPYKGVSTYNQKFKDRFTISVDKSKNTAYLQMNSLRAEDTAVYYCARSGYYGDSDWYFDVWGQGTLVTVSSASVAAPSVFIFPPSDEQLKSGTASVVCLLNNFYPREAKVQWKVDNALQSGNSQESVTEQDSKDSTYSLSSTLTLSKADYEKHKVYACEVTHQGLSSPVTKSFNRGEC
B2: “2+1 IgG Crossfab (CL/CH1)”; CL/CH1 exchange (M4-3 ML2/V9) (bispecific antibody)
heavy 1: not shown
heavy 2: QVQLQESGPGLVKPSQTLSLTCTVSGGSITSGYYWNWIRQHPGKGLEWIGYITYDGSNNYNPSLKSRVTISRDTSKNQFSLKLSSVTAADTAVYYCADFDYWGQGTLVTVSSASTKGPSVFPLAPSSKSTSGGTAALGCLVKDYFPEPVTVSWNSGALTSGVHTFPAVLQSSGLYSLSSVVTVPSSSLGTQTYICNVNHKPSNTKVDKKVEPKSCDKTHTCPPCPAPEAAGGPSVFLFPPKPKDTLMISRTPEVTCVVVDVSHEDPEVKFNWYVDGVEVHNAKTKPREEQYNSTYRVVSVLTVLHQDWLNGKEYKCKVSNKALGAPIEKTISKAKGQPREPQVCTLPPSRDELTKNQVSLSCAVKGFYPSDIAVEWESNGQPENNYKTTPPVLDSDGSFFLVSKLTVDKSRWQQGNVFSCSVMHEALHNHYTQKSLSLSPGK
light 1: not shown
light 2: DIQMTQSPSSLSASVGDRVTITCRASQDIRNYLNWYQQKPGKAPKLLIYYTSRLESGVPSRFSGSGSGTDYTLTISSLQPEDFATYYCQQGNTLPWTFGQGTKVEIKSSASTKGPSVFPLAPSSKSTSGGTAALGCLVKDYFPEPVTVSWNSGALTSGVHTFPAVLQSSGLYSLSSVVTVPSSSLGTQTYICNVNHKPSNTKVDKKVEPKSC
B3: CD3/MCSP “1+1 CrossMab”; CL/CH1 exchange (LC007/V9) (bispecific antibody, human IgG1, kappa, L234A L235A)
heavy 1: not shown
heavy 2: EVQLQESGPGLVKPSQSLSLTCSVTGYSITSGYYWNWIRQFPGNKLEWMGYITYDGSNNYNPSLKNRISITRDTSKNQFFLKLNSVTTEDTATYYCADFDYWGQGTTLTVSSASTKGPSVFPLAPSSKSTSGGTAALGCLVKDYFPEPVTVSWNSGALTSGVHTFPAVLQSSGLYSLSSVVTVPSSSLGTQTYICNVNHKPSNTKVDKKVEPKSCDKTHTCPPCPAPEAAGGPSVFLFPPKPKDTLMISRTPEVTCVVVDVSHEDPEVKFNWYVDGVEVHNAKTKPREEQYNSTYRVVSVLTVLHQDWLNGKEYKCKVSNKALGAPIEKTISKAKGQPREPQVCTLPPSRDELTKNQVSLSCAVKGFYPSDIAVEWESNGQPENNYKTTPPVLDSDGSFFLVSKLTVDKSRWQQGNVFSCSVMHEALHNHYTQKSLSLSPGK
light 1: B1 light 1
light 2: B2 light 2
B4: “2+1 IgG Crossfab (VL/VH)”; VL/VH exchange (M4-3 ML2/V9) (bispecific antibody)
heavy 1: not shown
heavy 2: B2 heavy 2
light 1: not shown
light 2: B1 light 2

Target: human MCSP expressed on tumor cells (human, UniProt Q6UVK1 30-2322)
Sequence (Q6UVK1 30-2322): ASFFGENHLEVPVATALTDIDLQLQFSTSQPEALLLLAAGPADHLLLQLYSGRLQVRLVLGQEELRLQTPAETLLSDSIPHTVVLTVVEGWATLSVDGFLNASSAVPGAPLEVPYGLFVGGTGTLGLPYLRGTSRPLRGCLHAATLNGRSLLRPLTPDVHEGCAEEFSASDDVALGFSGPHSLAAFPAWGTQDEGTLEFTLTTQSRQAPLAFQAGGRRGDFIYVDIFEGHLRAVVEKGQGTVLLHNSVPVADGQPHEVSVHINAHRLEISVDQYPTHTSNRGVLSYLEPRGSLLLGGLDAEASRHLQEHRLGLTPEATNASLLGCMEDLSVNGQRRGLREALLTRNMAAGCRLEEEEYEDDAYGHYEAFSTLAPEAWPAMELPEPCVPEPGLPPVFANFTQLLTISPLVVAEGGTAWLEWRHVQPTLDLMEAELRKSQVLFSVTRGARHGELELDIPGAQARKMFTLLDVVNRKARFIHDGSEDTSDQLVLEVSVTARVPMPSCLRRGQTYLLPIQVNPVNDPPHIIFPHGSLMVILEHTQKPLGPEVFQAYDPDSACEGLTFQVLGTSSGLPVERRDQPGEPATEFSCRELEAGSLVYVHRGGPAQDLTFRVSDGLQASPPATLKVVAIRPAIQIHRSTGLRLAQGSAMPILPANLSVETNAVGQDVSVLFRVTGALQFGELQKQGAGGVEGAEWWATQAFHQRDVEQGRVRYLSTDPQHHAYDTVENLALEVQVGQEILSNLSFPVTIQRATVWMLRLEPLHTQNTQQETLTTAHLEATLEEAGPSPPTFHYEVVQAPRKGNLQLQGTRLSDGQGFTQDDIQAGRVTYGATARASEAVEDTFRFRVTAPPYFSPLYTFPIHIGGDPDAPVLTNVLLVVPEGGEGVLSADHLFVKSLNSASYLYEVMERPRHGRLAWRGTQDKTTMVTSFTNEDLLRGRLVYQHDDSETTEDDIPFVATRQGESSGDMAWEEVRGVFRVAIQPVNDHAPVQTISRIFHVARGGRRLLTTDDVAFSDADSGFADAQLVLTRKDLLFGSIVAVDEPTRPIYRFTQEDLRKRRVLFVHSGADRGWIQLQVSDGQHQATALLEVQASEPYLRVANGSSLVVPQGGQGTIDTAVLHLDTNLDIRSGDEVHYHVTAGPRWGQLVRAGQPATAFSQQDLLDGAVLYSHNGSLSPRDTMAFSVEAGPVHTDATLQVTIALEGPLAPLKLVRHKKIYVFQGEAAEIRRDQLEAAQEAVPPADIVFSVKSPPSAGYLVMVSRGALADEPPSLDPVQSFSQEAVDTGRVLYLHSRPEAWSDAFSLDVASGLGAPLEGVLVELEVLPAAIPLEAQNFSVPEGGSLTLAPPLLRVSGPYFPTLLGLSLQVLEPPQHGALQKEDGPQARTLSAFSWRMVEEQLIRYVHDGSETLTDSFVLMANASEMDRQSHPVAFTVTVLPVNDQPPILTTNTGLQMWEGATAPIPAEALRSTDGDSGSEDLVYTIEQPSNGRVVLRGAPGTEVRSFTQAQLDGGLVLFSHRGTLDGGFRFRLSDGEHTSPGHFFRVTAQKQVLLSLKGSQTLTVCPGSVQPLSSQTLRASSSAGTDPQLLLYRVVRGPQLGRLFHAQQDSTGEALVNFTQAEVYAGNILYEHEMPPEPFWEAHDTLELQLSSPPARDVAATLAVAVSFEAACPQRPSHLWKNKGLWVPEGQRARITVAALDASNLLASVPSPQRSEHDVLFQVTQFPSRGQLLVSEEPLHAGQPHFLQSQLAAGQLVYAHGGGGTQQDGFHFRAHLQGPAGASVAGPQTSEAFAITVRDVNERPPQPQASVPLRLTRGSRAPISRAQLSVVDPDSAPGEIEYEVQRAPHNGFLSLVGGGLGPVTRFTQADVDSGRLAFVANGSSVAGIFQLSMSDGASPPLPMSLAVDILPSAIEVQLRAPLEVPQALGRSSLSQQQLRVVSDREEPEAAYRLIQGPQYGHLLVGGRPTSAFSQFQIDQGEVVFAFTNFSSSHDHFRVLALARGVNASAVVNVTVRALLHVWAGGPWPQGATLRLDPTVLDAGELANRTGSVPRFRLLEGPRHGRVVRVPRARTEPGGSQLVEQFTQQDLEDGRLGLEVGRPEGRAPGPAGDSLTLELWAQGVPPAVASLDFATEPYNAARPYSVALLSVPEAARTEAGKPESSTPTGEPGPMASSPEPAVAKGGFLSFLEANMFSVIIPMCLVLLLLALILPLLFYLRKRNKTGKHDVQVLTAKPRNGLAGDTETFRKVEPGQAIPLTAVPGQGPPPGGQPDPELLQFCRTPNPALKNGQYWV
Assay: cell-based or functional assay

Row | Binder | EC50 of killing (LDH release) of MV-3 cells, human PBMCs, E:T 10:1, 21 h [nM] | EC50 of killing (LDH release) of WM266-4 cells, human PBMCs, E:T 10:1, 21 h [nM] | EC50 of killing (LDH release) of MV-3 cells, human PBMCs, E:T 10:1, 27 h [nM] | EC50 of killing (LDH release) of WM266-4 cells, human PBMCs, E:T 10:1, 26 h [nM]
1 | B1 | 0.0409 | 0.0284 | – | –
2 | B2 | – | – | ~0.0117 | 0.0129
3 | B3 | 0.0884 | 0.0539 | – | –
4 | B4 | – | – | ~0.0822 | 0.0168
